43 sequences from the Immune Epitope Database (IEDB) can be followed below.

Some targets named below: HLA-A*31:01; HLA-A*11:01; HLA-A*68:01; HLA-A*33:01; HLA-A*03:01.
What all share (assay): IEDB peptide-MHC binding, purified MHC/competitive/radioactivity; filed as Kd, often an IC50 or EC50 that approximates it; ≥ and ≤ were set here for values at or beyond the usual limits of such assays
The mark [1] stands for this setting: source organism: Vaccinia virus WR.
[2] abbreviates: source organism: Dengue virus 2 Jamaica/1409/1983.
Setting [3] is: source organism: Dengue virus 1 Brazil/97-11/1997.
The mark [4] stands for this setting: source organism: Dengue virus 4 Philippines/H241/1956.
Setting [5] is: source organism: SARS coronavirus Tor2.
Where [6] appears, read: source organism: Lymphocytic choriomeningitis virus (strain Armstrong).
[7] abbreviates: source organism: Dengue virus 3 Martinique/1243/1999.
The mark [8] stands for this setting: source organism: Dengue virus 4 Dominica/814669/1981.

Some results are limits rather than exact numbers.

FLIVSLCPTK: the Kd was ≥ 25600 nM in the assay with HLA-A*31:01 (setting [1]); 2.2 nM in the assay with HLA-A*11:01 (setting [1]); 977 nM in the assay with HLA-A*68:01 (setting [1]); 15100 nM in the assay with HLA-A*33:01 (setting [1]); 219 nM with HLA-A*03:01 (setting [1]).
For FLLRHYYNK, in that order: 76.4 nM, 27.1 nM, 1340 nM, 2050 nM and 7.31 nM.
Regarding FMALVAFLR, the Kd came to 16.9 nM in the assay with HLA-A*31:01 (setting [2]), 50.6 nM with HLA-A*68:01 (setting [2]) and 10.7 nM with HLA-A*33:01 (setting [2]).
As for FMSHVKSVTK, the Kd with HLA-A*31:01 (setting [1]) was found to be 279 nM; with HLA-A*11:01 (setting [1]), 3.28 nM; with HLA-A*68:01 (setting [1]), 31.6 nM; in the assay with HLA-A*33:01 (setting [1]) it was 98.9 nM; with HLA-A*03:01 (setting [1]) it was 7.73 nM.
On to FNMLKRARNR, for which the dissociation constant Kd with HLA-A*33:01 (setting [3]) is 421 nM.
On to FTTRLLSSTR, for which the dissociation constant Kd with HLA-A*68:01 (setting [4]) is 25.5 nM; with HLA-A*33:01 (setting [4]) it was 85.4 nM.
With FVSLVKKNKK, the Kd in the assay with HLA-A*31:01 (setting [1]) was 284 nM; in the assay with HLA-A*11:01 (setting [1]), 234 nM; with HLA-A*68:01 (setting [1]), 11.5 nM; with HLA-A*33:01 (setting [1]), 9290 nM; with HLA-A*03:01 (setting [1]) it was 4660 nM.
For GIADIRDKY, in that order: ≥ 77900 nM, 8970 nM, 2340 nM, ≥ 77700 nM and ≥ 78000 nM.
The like results for GIFVDTMSIY were, in that order, ≥ 70000 nM, 815 nM, 3380 nM, ≥ 28500 nM and 3790 nM.
GLFCLLNRY: the dissociation constant Kd was determined as 7160 nM in the assay with HLA-A*31:01 (setting [5]); 1340 nM with HLA-A*11:01 (setting [5]); 16100 nM with HLA-A*68:01 (setting [5]); 13000 nM with HLA-A*33:01 (setting [5]); 839 nM in the assay with HLA-A*03:01 (setting [5]).
For GLTPEQKAY, the Kd with HLA-A*31:01 (setting [1]) is ≥ 77900 nM; with HLA-A*11:01 (setting [1]), ≥ 56300 nM; in the assay with HLA-A*68:01 (setting [1]), 15000 nM; with HLA-A*33:01 (setting [1]), ≥ 77700 nM; with HLA-A*03:01 (setting [1]), ≥ 78000 nM.
Regarding GNFSWFPHK, the equilibrium dissociation constant (Kd) with HLA-A*31:01 (setting [6]) worked out at 1350 nM; in the assay with HLA-A*11:01 (setting [6]) it was 80.2 nM; with HLA-A*68:01 (setting [6]), 1830 nM; with HLA-A*33:01 (setting [6]), 6310 nM; with HLA-A*03:01 (setting [6]), 159 nM.
As to GVCGIRSATR, the Kd with HLA-A*31:01 (setting [3]) is ≥ 70000 nM; in the assay with HLA-A*68:01 (setting [3]), 1880 nM.
In the case of HTCMSECVR, the dissociation constant Kd with HLA-A*31:01 (setting [1]) was 25.4 nM; with HLA-A*11:01 (setting [1]) it was 67.3 nM; in the assay with HLA-A*68:01 (setting [1]), 57.8 nM; in the assay with HLA-A*33:01 (setting [1]) it was 324 nM; in the assay with HLA-A*03:01 (setting [1]) it was 3200 nM.
Regarding HVQTKPGLFK, the Kd with HLA-A*11:01 (setting [4]) was determined as 389 nM; in the assay with HLA-A*03:01 (setting [4]), 8.44 nM.
In the case of IMQAGKRSLR, the equilibrium dissociation constant (Kd) with HLA-A*31:01 (setting [2]) was determined as 5.8 nM; with HLA-A*33:01 (setting [2]) it was 219 nM.
On to ISSIIRSLPK, for which the Kd with HLA-A*11:01 (source organism: Mammarenavirus whitewaterense) came out at 23 nM.
As for KAINVLRGFR, the Kd with HLA-A*31:01 (setting [2]) is 0.824 nM.
On to KMVEPWLSSK, for which the dissociation constant Kd in the assay with HLA-A*03:01 (setting [4]) amounted to 11.5 nM.
Turning to LINRFTMRHK, the Kd with HLA-A*03:01 (source organism: Dengue virus 2 Peru/IQT2913/1996) turned out to be 14.1 nM.
Consider LLSGQGPMK, for which the dissociation constant Kd with HLA-A*03:01 (setting [3]) turned out to be 40.2 nM.
Regarding LMRFITAETH, the equilibrium dissociation constant (Kd) with HLA-A*31:01 (setting [6]) is 411 nM; in the assay with HLA-A*68:01 (setting [6]), 3540 nM; with HLA-A*33:01 (setting [6]), 5450 nM.
On to LTWLGLNSR, for which the Kd was ≥ 63300 nM with HLA-A*31:01 (setting [3]) and 43.8 nM with HLA-A*33:01 (setting [3]).
MGYWIESSK: in the assay with HLA-A*03:01 (setting [4]), the equilibrium dissociation constant (Kd) was 83.9 nM.
As to MLNILNRRRR, the equilibrium dissociation constant (Kd) with HLA-A*31:01 (setting [2]) was found to be 14.1 nM.
Turning to MLSIINKRK, the Kd with HLA-A*03:01 (setting [7]) amounted to 121 nM.
MVLAFITFLR: the dissociation constant Kd in the assay with HLA-A*31:01 (setting [4]) is 4.34 nM; with HLA-A*11:01 (setting [4]), 971 nM; with HLA-A*68:01 (setting [4]) it was 17.4 nM; with HLA-A*33:01 (setting [4]), 22.3 nM.
As for MWSLMYFHR, the dissociation constant Kd with HLA-A*31:01 (setting [7]) turned out to be 28.9 nM; with HLA-A*33:01 (setting [7]) it was 1.36 nM.
For MWSLMYFHRR, in that order: 11.5 nM and 31.2 nM.
On to NTSVDLYAR, for which, in the assay with HLA-A*11:01 (source organism: Mammarenavirus guanaritoense), the Kd stood at 2190 nM.
Take RLRMDKLQLK: in the assay with HLA-A*03:01 (setting [2]), the Kd turned out to be 7.91 nM.
For the sequence SMLNIMNRRK, the equilibrium dissociation constant (Kd) with HLA-A*03:01 (setting [3]) worked out at 49.6 nM.
In the case of SQLAKRFSR, the Kd in the assay with HLA-A*31:01 (source organism: Dengue virus 3 Singapore/8120/1995) is 2.07 nM.
With STYGWNLVR, the equilibrium dissociation constant (Kd) with HLA-A*31:01 (setting [2]) turned out to be 3.26 nM; in the assay with HLA-A*68:01 (setting [2]), 8.81 nM; with HLA-A*33:01 (setting [2]), 2.91 nM; with HLA-A*03:01 (setting [2]) it was 63.5 nM.
Turning to SYSMCTGKFK, the Kd with HLA-A*33:01 (setting [2]) was found to be 841 nM.
TSGSPIIDK: in the assay with HLA-A*11:01 (source organism: Dengue virus 2 16681-PDK53), the dissociation constant (Kd) was 69.4 nM.
Consider TTLSLDYAWK, for which the dissociation constant (Kd) in the assay with HLA-A*11:01 (setting [3]) amounted to 79.8 nM; with HLA-A*68:01 (setting [3]), 13.9 nM.
Take TTVITPMLR: the Kd with HLA-A*68:01 (setting [7]) worked out at 11.8 nM; with HLA-A*33:01 (setting [7]), 36.7 nM.
Turning to VFLRKLTSR, the Kd with HLA-A*31:01 (setting [8]) was found to be 66.8 nM; with HLA-A*33:01 (setting [8]), 178 nM.
Take VSLLGSALLK: the Kd with HLA-A*11:01 (setting [4]) stood at 45.3 nM; with HLA-A*03:01 (setting [4]), 24.9 nM.
As for VVVGAGGVGK, the Kd was 12.4 nM with HLA-A*11:01 (source organism: Homo sapiens) and 82 nM with HLA-A*03:01 (source organism: Homo sapiens).
Turning to YMPSMKRFR, the Kd with HLA-A*31:01 (setting [2]) stood at 100 nM; with HLA-A*33:01 (setting [2]), 7.57 nM.
Consider YVSAIAQTEK, for which the dissociation constant Kd turned out to be 311 nM with HLA-A*11:01 (setting [2]) and 24 nM with HLA-A*68:01 (setting [2]).
